Measured values reported in the supplement of paper PMC10201428.
± gives the standard deviation of the averaged measurements.

system: VchCAST RNA-guided transposition machinery (E. coli BL21(DE3) host, lacZ target); assay: relative integration efficiency (T-RL orientation) vs wild-type transposon end (log2 (normalized fold change)); transposon end mutated: right end (5 bp flank + 75 bp right end); higher = more efficient transposition
Method in brief: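 A T7-driven effector plasmid encoding a CRISPR array, tniQ-cas8-cas7-cas6 and tnsA-tnsB-tnsC was co-transformed into E. coli BL21(DE3) together with a pUC57 mini-transposon donor holding barcoded pools of 1549 left-end or 1849 right-end variants. Transformants were plated with 0.1 mM IPTG at 37°C for 18 h. Illumina sequencing of PCR-amplified input plasmids and genomic integration junctions gave barcode abundances, and relative integration efficiency is their output/input fold change, normalised to reference barcodes and log-transformed.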

Sequence	relative integration efficiency (log2)
ACATTTGTTGATACAACCATAAAATGATAATTAATAATTATTTATAATCAGCAACTTAACCACACACCCATAAATTGATAATTATCACACCCATAAATTGATATTGCCTCTGATCATAGTCAGACCA	-3.09 ± 0.16
ACATTTGTAAAAAAAACCATACGTTGATTTTACGAAACCATACGCTGAAATAATCACAACCATAAATTGAAATTGCCTCTGATCATAGTCAGACCAACATTGCTACGACCCGTATTCGCACCGACAC	-6.99 ± 0.21
ACATTTGTTTATACAACCATAAAATGATAATTACACCCATAAATGGATTATTATCACACCCAATTTAACTATAACGCTCTGATCATAGTCAGACCAACATTGCTACGACCCGTATTCGCACCGACAC	-2.39 ± 0.61
ACATTTGTTGATACAACCATAAAATGATAATTACTGGGATAAATTGATAATTATCACACCCATAAATTGATATTGCCTCTGATCATAGTCAGACCAACATTGCTACGACCCGTATTCGCACCGACAC	-0.454 ± 0.059
ACATTTGTTGATACAACCATAAAATGATAATTACAAAACGCCCGGTCGCCGGCGACACAAACGCCCGGTCGCGGTAAGAGGATCATAGTCAGACCAACATTGCTACGACCCGTATTCGCACCGACAC	-2.05 ± 0.22
ACATTTGTTGATACAACCATAAGTTGATATTTTCACCCATAAATTGATATTGCTCACACCCATAAATTGATAATTACTCTGATCATAGTCAGACCAACATTGCTACGACCCGTATTCGCACCGACAC	-0.658 ± 0.16
ACATTTGTTGATATAATTATCATTTTATGGTTGTAATTATCATTTTATGGTTGTCATAATTATCATTTTATGGTTGCTCTGATCATAGTCAGACCAACATTGCTACGACCCGTATTCGCACCGACAC	-6.26 ± 0.22
ACATTTGTGGATACAACCCTAAAATGATAATTACACCCATAAATTCATAATTATCACACCCAATTTAACTATAACGCTCTGATCATAGTCAGACCAACATTGCTACGACCCGTATTCGCACCGACAC	-5.07 ± 0.49
ACATTTGTTGATACAACCATAAAGTGATATTTACACCCATAAATTGATAATTATCACAACCATAAGTTGATATTTTCTCTGATCATAGTCAGACCAACATTGCTACGACCCGTATTCGCACCGACAC	-0.313 ± 0.23
ACATTTGTTGATACAACCATAAAATGATAATTACACCCATAAATTGATAATTATGACACCGAATTTAACTATAACGCTCTGATCATAGTCAGACCAACATTGCTACGACCCGTATTCGCACCGACAC	-1.22 ± 0.39
ACATTTGTTGATACACCCATAAATTGATAATTACACCCATAAATTGATAATTATCACAACCATAAAGTGATATTTACTCTGATCATAGTCAGACCAACATTGCTACGACCCGTATTCGCACCGACAC	-0.445 ± 0.034
ACATTTGTCGATACAACCCTAAAATGATAATTACACCCATAAATTGATAATTATCACACCCAATTTAACTATAACGCTCTGATCATAGTCAGACCAACATTGCTACGACCCGTATTCGCACCGACAC	-2.1 ± 0.33
ACATTTGTTGATACAACCATAAAATGATAATTACACCCATAAATTGATAATGCGAACACCCATAAATTGATATTGCCTCTGATCATAGTCAGACCAACATTGCTACGACCCGTATTCGCACCGACAC	-0.292 ± 0.045
ACATTTGTTGATACAACCATAAAATGATAATTACAACCATAAAATGATAATTATCACAACCATAAAATGATAATTACTCTGATCATAGTCAGACCAACATTGCTACGACCCGTATTCGCACCGACAC	-0.193 ± 0.0064
ACATTTGTTGATACAACCAATAAATGATAAATACACCCATAAATTGATAATGATGACACCGAATTTAACTATAACGCTCTGATCATAGTCAGACCAACATTGCTACGACCCGTATTCGCACCGACAC	-1.58 ± 0.26
ACATTTGTTGATACAACCATAAAATGATAATTACACCCATAAATTGATAATTATCACACCCATAAATTGATATTGCCTCTTCATGTGAGCCCAGGCAGTAAGTTTACGACATTTTCAGCACCGACAC	-1.91 ± 0.27

Sequence	relative integration efficiency (log2)
ACATTTGTTGATACAACCATCAAATGATAATTACACCCCTACATTGATAATTATCACACCCAATTTAACTATAACGCTCTGATCATAGTCAGACCAACATTGCTACGACCCGTATTCGCACCGACAC	-4.12 ± 0.053
ACATTTGTTGATACAACCATAAAATGATAATTACACCCATAAAGGTCGCCGGCGACACAAACGCCCGGTCGCGGTAAGAGGATCATAGTCAGACCAACATTGCTACGACCCGTATTCGCACCGACAC	-2.2 ± 0.37
ACATTTGTTGATACAACCATAAAATGATAATTACACCCTATTATTGATAATTATCACACCCATAAATTGATATTGCCTCTGATCATAGTCAGACCAACATTGCTACGACCCGTATTCGCACCGACAC	-0.713 ± 0.11
ACATTTGTCGATCCAACCATAAAATGATAATTACACCCATAAATGGATCATTATCACACCCAATTTAACTATAACGCTCTGATCATAGTCAGACCAACATTGCTACGACCCGTATTCGCACCGACAC	-2.08 ± 0.19
ACATTTGTTGATACAACCATAAAATGATAATTAATAATTATTTATAATCAGCAACTTAACCCACCCATAAATTGATAATTATCAACAAACGCCCGGTCGCGGTACTCTGATCATAGTCAGACCAACA	-2.76 ± 0.67
ACATTTGTTGATACAACCATAAAATGATAATTACCCCCATAAATTGATAATTATCCCACCCAATTTAACTATAACGCTCTGATCATAGTCAGACCAACATTGCTACGACCCGTATTCGCACCGACAC	-1.15 ± 0.18
ACATTTGTTGATACAACCATAAAATGATAATTACACCCATAAATTGATAATTATCACACCCATAAATTGATATTGCCTCCAACCATAAAATGATAATTATGATCATAGTCAGACCAAGCACCGACAC	-0.0389 ± 0.26
ACATTTGTTGATACAACCATAAAATGATAATTATAATTATCATTTTATGGTTGTCACAACCATAAAATGATAATTACTCTGATCATAGTCAGACCAACATTGCTACGACCCGTATTCGCACCGACAC	-3.2 ± 0.33
ACATTTGTTGATACAACCATAAGTTGATATTTTCAACCATATATTGATATCTCTCACAACCATAAAGTGATATTTACTCTGATCATAGTCAGACCAACATTGCTACGACCCGTATTCGCACCGACAC	-0.324 ± 0.14
ACATTTGTTGATACAACCATAAAATGATAATTACCACCCATAAATTGATAATTATCACACCCATTTAACTATAACGCTCTGATCATAGTCAGACCAACATTGCTACGACCCGTATTCGCACCGACAC	-0.999 ± 0.21
CAAAATGTAAAAAAAACCATACGTTGATTTTACGAAACCATACGCTGAAATAAAAACAACCATACCTTGAAATTGCTTATGATCATAGTCAGACCAACATTGCTACGACCCGTATTCGCACCGACAC	-6.15 ± 0.21
ACATTTGTTGATACAACCATAAAATGATAATTACACCCATAAATTGATAATTTAGTCACCCATAAATTGATATTGCCTCTGATCATAGTCAGACCAACATTGCTACGACCCGTATTCGCACCGACAC	-0.447 ± 0.07
ACATTTGTTGATACAACCATAAAATGATAATTACACCCATAAATTGATAAGGATCACACCCATAAATTGATATTGCCTCTGATCATAGTCAGACCAACATTGCTACGACCCGTATTCGCACCGACAC	-0.665 ± 0.083
ACATTTGTTGATACAACCATAAAATGATAATTACCACCCCTAAATTGATAATTATCACACCCATTTAACTATAACGCTCTGATCATAGTCAGACCAACATTGCTACGACCCGTATTCGCACCGACAC	-3.13 ± 0.18
ACATTTGTCGATACAACCCTAAAATGATAATTACACCCATAAATGGATAATTATCACACCCAATTTAACTATAACGCTCTGATCATAGTCAGACCAACATTGCTACGACCCGTATTCGCACCGACAC	-3.17 ± 0.19
ACATTTGTTGATACCACCATCAAATGATAATTACACCCATAAATTGATAATTATCACACCCAATTTAACTATAACGCTCTGATCATAGTCAGACCAACATTGCTACGACCCGTATTCGCACCGACAC	-1.91 ± 0.26
